Results on 3 molecules are retold here after patent US7329737 (DYAX, dated 2008).

In experiment [1] the target is T1, hK1 (human tissue kallikrein 1), recombinant (human, UniProt P06870 25-262). In words: cell-based or functional assay.
Experiment [2] has as its target T1, hK1 (human tissue kallikrein 1), …. In words: SPR, biotinylated hK1 on streptavidin chip; Fab 50 nM after DX-2300 50 nM (competitor DX-2300).
From the text: Epitope grouping by SPR. Biotinylated hK1 was captured on a streptavidin coated chip to a final ligand density of 88 RU. […] The signal at the end of the injection of the Fab alone is R2.
Experiment [3] shares this target. In words: SPR. (SPR reads the build-up and loss of mass on a sensor chip optically.)

B1: M0112-D07 (Fab, V domains shown)
VH: EVQLLESGGGLVQPGGSLRLSCAASGFTFSFYSMSWVRQAPGKGLEWVSRIRPSGGRTDYADSVKGRFTISRDNSKNTLYLQMNSLRAEDTAVYYCARDRLYYYGSGSYYYGAFDIWGQGTMVTVSS
VL: DIQMTQSPSSLSASVGDRVTITCRASQTIRTYLNWYQQKPGIAPKFLIYDASNLQTGVPSRFSGSGSGTHFTLTISSLQPEDFGTYYCQQSYGGPPTFGRGTKIEIKR
With B1, the “IC50 (nM), inhibition of hK1 enzyme activity” value in experiment [1] was > 120 nM. Moreover, the “Fab Signal following DX-2300 (R1)” value in experiment [2] was found to be 3. Further, in experiment [3], the dissociation constant Kd (usually the free concentration of one partner at which half of the binding sites on the other are occupied at equilibrium, for simple one-to-one binding) worked out at 5.81 nM; the koff – broadly, the rate constant with which the complex falls apart – came to 0.000781 s⁻¹; the association rate constant (kon) (commonly the second-order rate constant of association) came to 134000 M⁻¹ s⁻¹.

B2: M0117-F04 (Fab, V domains shown)
VH: EVQLLESGGGLVQPGGSLRLSCAASGFTFSMYVMNWVRQAPGKGLEWVSRIGSSGGGTLYADSVKGRFTISRDNSKNTLYLQMNSLRAEDTAVYYCARVSVYRIRNYYYYAMDVWGQGTTVTVSS
VL: DIQMTQSPSSLSASVGDRVTITCRASQGIGNYLAWYQQKPGKAPNLLIYKTSNLQSGVPSRFRGSGSGTEFTLTITSVQPDDFATYFCQRYDSYSQYIFGQGTKLETKR
On to B2, for which the “IC50 (nM), inhibition of hK1 hydrolysis of Pro-Phe-Arg-AMC” value in experiment [1] was 5.2 nM. Further, in experiment [2], the “Fab Signal following DX-2300 (R1)” value came to 6.7. In addition, in experiment [3], the Kd was 6.61 nM, the koff is 0.00197 s⁻¹ and the kon is 298000 M⁻¹ s⁻¹.

B3: M0134-D07 (Fab, V domains shown)
VH: EVQLLESGGGLVQPGGSLRLSCAASGFTFSRYFMIWVRQAPGKGLEWVSSIVPSGGPTRYADSVKGRFTISRDNSKNTLYLQMNSLRAEDTAVYYCARRGPVYYYDSSGSHSAFDIWGQGTMVTVSS
VL: DIQMTQSPSSLSASVGDRVTITCRASQGIRNDLGWYQQKPGKAPKLLIYAASSLQSGVPSRFSGSGSGTDFTLTISSLQPEDFATYYCLQDYNYPRTFGQGTKVEIKR
B3: in experiment [1], the “IC50 (nM), inhibition of hK1 hydrolysis of Pro-Phe-Arg-AMC” value was determined as 10.1 nM. In experiment [2], the “Fab Signal following DX-2300 (R1)” value is 2.3. Moreover, in experiment [3], the Kd was 2.69 nM, the koff was determined as 0.000138 s⁻¹ and the kon is 51300 M⁻¹ s⁻¹.
